# From paper PMC11046469, “Leveraging a Phage-Encoded Noncanonical Amino Acid: A Novel Pathway to Potent and Selective Epigenetic Reader Protein Inhibitors” (ACS Central Science, 2024)
# Target: T1, ENL YEATS domain (AviSUMO-ENL YEATS) (Homo sapiens, UniProt Q03111)
# T1 construct: encoding ENL YEATS (aa 1−148) was cloned in pET28a-; made in house; host or cells: E. coli BL21(DE3pLysS), co-expressed with BirA (pBirAcm)
# T1 sequence (Q03111 1-148): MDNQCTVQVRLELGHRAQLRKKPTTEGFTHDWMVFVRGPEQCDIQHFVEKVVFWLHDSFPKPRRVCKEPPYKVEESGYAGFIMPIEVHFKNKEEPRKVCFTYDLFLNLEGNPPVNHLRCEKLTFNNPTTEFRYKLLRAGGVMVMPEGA
# Experiment: Phage panning of BuK-containing 7-mer library against AviSUMO-ENL YEATS with Illumina NGS abundance
# Conditions: sheet ENLR3: round 3 of panning against ENL YEATS; TAG = amber codon (BuK); 7-mer library positions V1-V7
# Text: We utilized a previously established amber-obligate 7-mer phage display library to develop a phage display library enriched with BuK-containing 7-mer peptides. For detailed characterizations, including analysis of amber codon percentages, NNK trinucleotide analysis, and amino acid distribution at each position within the library, please refer to the work of Tharp et al.[10] Furthermore, the comprehensive raw NGS data for the amber-obligate 7-mer phage library can be found in the NCBI’s Sequence Read Archive, under the accession ID PRJNA606283. To produce the BuK-containing 7-mer phage library, the phages were produced in the presence of 5 mM BuK using TOP10 cells harboring the following three plasmids: (1) pADL-gIII, which contains the 7-mer amber-obligate peptide-coding DNA library positioned at the N-terminus of M13 pIII gene; (2) pCDF-BuKRS, which encodes BuKRS and its cognate tRNA^Pyl for the genetic incorporation of BuK at amber codons in the 7-mer library; and (3) M13KO7TAA, a helper phage plasmid engineered to have a TAA mutation at pIII so that its lack of a functional pIII allows an efficient multivalent display of the 7-mer library. The ENL YEATS domain containing an N-terminal AviSUMO-Tag was recombinantly expressed in E. coli together with BirA, a biotin ligase, for site-specific biotinylation at the AviTag. The biotinylated AviSUMO-ENL YEATS was immobilized on streptavidin-coated magnetic beads for panning with the BuK-containing phages. […] Phage libraries collected from the first and third rounds of selection were sequenced using Illumina next generation sequencing (NGS) and all sequenced data are available through the NCBI SRA database (Project PRJNA1041845). To prevent possible sequencing errors from affecting conclusions, sequences were filtered using previously published paired-end processing,[10] where any sequences containing more than one mismatch in the nonlibrary region or any mismatch in the library region were discarded. The NGS data provided DNA sequences encompassing both the library and nonlibrary regions. In our analysis, we included data from the nonlibrary region as a stringent quality control measure to filter out low-quality data. For our analysis, we utilized 51 nucleotides from the NGS output, with 21 nucleotides encoding the library region and an additional 30 nucleotides for the nonlibrary region. […] Among all the sequences, only 85 of them contained more than 100 copies (blue area), while the remaining sequences all had low abundances (<10^2 copies, dark and light gray areas), which constituted 85.2% of the first round population. After three panning rounds, the selection converged to two highly enriched sequences: YDVYCYX (ENL-S1) and WWIIEXG (ENL-S2, X denotes BuK). Out of 551 different unique sequences collected from the third round, ENL-S1 and ENL-S2 represented 85% of the entire library (Figure 2A and Figures S6–S8). Both peptide sequences corresponded to their own unique DNA sequence, rather than there being varying codons encoding the same amino acids (Figure S7). […] Two motifs were found in the majority of sequences with high abundance (greater than 0.1%) (Figure S6). A Y(C/L)Y pattern was identified in the residues adjacent to BuK in four of the eight top sequences. Also, an H(L/Y)(T/V)LFXG (X denotes BuK) motif was observed, albeit at lower abundances, in two of the top sequences. In the initial round of selection, we observed that only a small percentage of phages were eluted, which aligns with typical outcomes in phage selection experiments since only a low copy number of phages can bind to the target.[10],[45] With each successive round of selection, we noted a gradual increase in the percentage of phages eluted. This incremental, rather than sharp, increase was attributed to the intensification of selection pressures, such as the application of more stringent washing protocols. We aimed for the incremental increase to retain potent clones with low copy numbers from the previous selection cycle. […]
n (number of NGS reads of the unique amino acid sequence),percent (share of sequence reads) [%],Substance
9,0.008196,SVIYCYTAG
5,0.004553,SWIIETAGG
8,0.007285,SWILWTAGG
79,0.07194,SWYITFTAG
3,0.002732,TAGCGPRTAGD
2,0.001821,TAGTLWNVG
3,0.002732,TAGTVTFWY
2,0.001821,TAGVMSLYS
6,0.005464,TAGWIIETAGG
3,0.002732,TAIFCYTAG
3,0.002732,VYCYTAGVW
2,0.001821,WCGPRTAGD
19,0.0173,WCIIETAGG
25,0.02277,WFILYTAGD
2,0.001821,WLIIETAGD
30,0.02732,WLIIETAGG
4,0.003642,WNCLYTAGD
2,0.001821,WQDTTAGTY
9,0.008196,WRIIETAGG
3,0.002732,WSIIETAGG

n (number of NGS reads of the unique amino acid sequence),percent (share of sequence reads) [%],Substance
4,0.003642,WTAGIIETAGG
3,0.002732,WTVYCYTAG
29,0.02641,WWIIDTAGG
2,0.001821,WWIIEKG
2,0.001821,WWIIEQG
23,0.02094,WWIIETAGD
10,0.009106,WWIIETAGE
33339,30.359,WWIIETAGG
6,0.005464,WWIIETAGR
16,0.01457,WWIIETAGV
27,0.02459,WWIIETAGW
3,0.002732,WWIIEWG
29,0.02641,WWIIEYG
6,0.005464,WWIIGTAGG
9,0.008196,WWIIKTAGG
19,0.0173,WWIITAGTAGG
4,0.003642,WWIIVTAGG
6,0.005464,WWIVETAGG
2,0.001821,WWTIETAGG
70,0.06374,WWVAGPTAG

# Same assay, conditions: sheet ENLR3: round 3 of selection against ENL YEATS; TAG = amber codon (BuK)
n (number of NGS reads of the 7-mer sequence V1-V7),percent (share of NGS reads of the 7-mer sequence V1-V7) [%],Substance
1,0.0009106,STTAGKLFI
1,0.0009106,STVYCYTAG
1,0.0009106,SWSITFTAG
1,0.0009106,TAGAFFCIL
1,0.0009106,TAGCGPRYD
1,0.0009106,TAGDVYCYTAG
1,0.0009106,TAGGSWVPI
1,0.0009106,TAGKDQLWN
1,0.0009106,TAGMVHIMV
1,0.0009106,TAGNVCGTV
1,0.0009106,TAGSFLYSF
1,0.0009106,TAGSGVASC
1,0.0009106,TAGSSIITC
1,0.0009106,TAGTYYVCR
1,0.0009106,TAGVFALVI
1,0.0009106,VATAGMWPC
1,0.0009106,VWVSTAGMT
1,0.0009106,WCFMVFL
1,0.0009106,WFIYTAGGC
1,0.0009106,WLAWRHL
1,0.0009106,WWFIETAGG
1,0.0009106,WWIFETAGG
1,0.0009106,WWIIATAGG
1,0.0009106,WWIIELG
1,0.0009106,WWILETAGG
1,0.0009106,WWINETAGG
1,0.0009106,WWITETAGG
